According to PMC12008772, “Transcription Factor SsNdt80b Maintains Optimal Expression of SsSNF1 to Modulate Growth and Pathogenicity in Sclerotinia sclerotiorum”:

Target: T1, SsNdt80b-His (Sclerotinia sclerotiorum, UniProt A0A1D9PYE1 1-599)
T1 sequence: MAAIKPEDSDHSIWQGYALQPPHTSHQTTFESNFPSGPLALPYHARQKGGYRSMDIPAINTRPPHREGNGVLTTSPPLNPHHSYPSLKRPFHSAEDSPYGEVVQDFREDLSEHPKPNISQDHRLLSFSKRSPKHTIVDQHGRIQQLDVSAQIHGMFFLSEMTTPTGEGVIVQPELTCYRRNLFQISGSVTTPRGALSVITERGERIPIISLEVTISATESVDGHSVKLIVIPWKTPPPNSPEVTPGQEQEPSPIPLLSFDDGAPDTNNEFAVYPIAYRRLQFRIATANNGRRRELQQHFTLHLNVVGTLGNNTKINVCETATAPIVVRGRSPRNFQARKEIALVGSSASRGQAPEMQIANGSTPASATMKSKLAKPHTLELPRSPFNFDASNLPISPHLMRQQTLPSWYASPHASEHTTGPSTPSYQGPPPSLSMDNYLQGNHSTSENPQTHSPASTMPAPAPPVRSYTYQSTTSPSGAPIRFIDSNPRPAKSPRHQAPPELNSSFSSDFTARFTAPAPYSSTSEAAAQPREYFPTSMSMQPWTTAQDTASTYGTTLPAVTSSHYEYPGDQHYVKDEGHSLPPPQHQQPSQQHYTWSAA
Assay: EMSA; LightShift Chemiluminescence EMSA Kit binding buffer (composition not given); protein 5 min on ice, then probe 30 min at room temperature; 6% native PAGE
Settings: protein: recombinant; tags: His; label: 5'-biotin on strand 1; printed biotin strand is 39 nt, reverse strand 40 nt: 1 nt 5' overhang (T) on strand 2; unlabelled forward oligo S65 is 40 nt and blunt with S64

B1: P-SsSNF1 biotin probe (dsDNA)
DNA 1: TGAAGAGCAGCTGGAACCACAAATCAACTTTTCCTTTAA
DNA 2: TTTAAAGGAAAAGTTGATTTGTGGTTCCAGCTGCTCTTCA
Does B1 bind?
Result: binds
